Measured values reported in patent publication US20250032576A1, “CNP Therapy” (BIOMARIN PHARMACEUTICAL INC., priority 2021, published 2025).
Several values for one entry are separate records, joined by “and”; a condition that tells them apart may be missing. Equal values may be shown once.

B1: Arg957Cys: NPR2 protein-altering variant, expression construct transfected into HEK293 cells (protein)
chain: RNLTLAVVLPEHNLSYAWAWPRVGPAVALAVEALGRALPVDLRFVSSELEGACSEYLAPLSAVDLKLYHDPDLLLGPGCVYPAASVARFASHWRLPLLTAGAVASGFSAKNDHYRTLVRTGPSAPKLGEFVVTLHGHFNWTARAALLYLDARTDDRPHYFTIEGVFEALQGSNLSVQHQVYAREPGGPEQATHFIRANGRIVYICGPLEMLHEILLQAQRENLTNGDYVFFYLDVFGESLRAGPTRATGRPWQDNRTREQAQALREAFQTVLVITYREPPNPEYQEFQNRLLIRAREDFGVELGPSLMNLIAGCFYDGILLYAEVLNETIQEGGTREDGLRIVEKMQGRRYHGVTGLVVMDKNNDRETDFVLWAMGDLDSGDFQPAAHYSGAEKQIWWTGRPIPWVKGAPPSDNPPCAFDLDDPSCDKTPLSTLAIVALGTGITFIMFGVSSFLIFRKLMLEKELASMLWRIRWEELQFGNSERYHKGAGSRLTLSLRGSSYGSLMTAHGKYQIFANTGHFKGNVVAIKHVNKKRIELTRQVLFELKHMRDVQFNHLTRFIGACIDPPNICIVTEYCPRGSLQDILENDSINLDWMFRYSLINDLVKGMAFLHNSIISSHGSLKSSNCVVDSRFVLKITDYGLASFRSTAEPDDSHALYAKKLWTAPELLSGNPLPTTGMQKADVYSFGIILQEIALRSGPFYLEGLDLSPKEIVQKVRNGQRPYFRPSIDRTQLNEELVLLMERCWAQDPAERPDFGQIKGFIRRFNKEGGTSILDNLLLRMEQYANNLEKLVEERTQAYLEEKRKAEALLYQILPHSVAEQLKRGETVQAEAFDSVTIYFSDIVGFTALSAESTPMQVVTLLNDLYTCFDAIIDNFDVYKVETIGDAYMVVSGLPGRNGQRHAPEIARMALALLDAVSSFRIRHRPHDQLRLCIGVHTGPVCAGVVGLKMPRYCLFGDTVNTASRMESNGQALKIHVSSTTKDALDELGCFQLELRGDVEMKGKGKMRTYWLLGERKGPPGLL
B2: Val965Asp: NPR2 protein-altering variant, expression construct transfected into HEK293 cells (protein)
chain: RNLTLAVVLPEHNLSYAWAWPRVGPAVALAVEALGRALPVDLRFVSSELEGACSEYLAPLSAVDLKLYHDPDLLLGPGCVYPAASVARFASHWRLPLLTAGAVASGFSAKNDHYRTLVRTGPSAPKLGEFVVTLHGHFNWTARAALLYLDARTDDRPHYFTIEGVFEALQGSNLSVQHQVYAREPGGPEQATHFIRANGRIVYICGPLEMLHEILLQAQRENLTNGDYVFFYLDVFGESLRAGPTRATGRPWQDNRTREQAQALREAFQTVLVITYREPPNPEYQEFQNRLLIRAREDFGVELGPSLMNLIAGCFYDGILLYAEVLNETIQEGGTREDGLRIVEKMQGRRYHGVTGLVVMDKNNDRETDFVLWAMGDLDSGDFQPAAHYSGAEKQIWWTGRPIPWVKGAPPSDNPPCAFDLDDPSCDKTPLSTLAIVALGTGITFIMFGVSSFLIFRKLMLEKELASMLWRIRWEELQFGNSERYHKGAGSRLTLSLRGSSYGSLMTAHGKYQIFANTGHFKGNVVAIKHVNKKRIELTRQVLFELKHMRDVQFNHLTRFIGACIDPPNICIVTEYCPRGSLQDILENDSINLDWMFRYSLINDLVKGMAFLHNSIISSHGSLKSSNCVVDSRFVLKITDYGLASFRSTAEPDDSHALYAKKLWTAPELLSGNPLPTTGMQKADVYSFGIILQEIALRSGPFYLEGLDLSPKEIVQKVRNGQRPYFRPSIDRTQLNEELVLLMERCWAQDPAERPDFGQIKGFIRRFNKEGGTSILDNLLLRMEQYANNLEKLVEERTQAYLEEKRKAEALLYQILPHSVAEQLKRGETVQAEAFDSVTIYFSDIVGFTALSAESTPMQVVTLLNDLYTCFDAIIDNFDVYKVETIGDAYMVVSGLPGRNGQRHAPEIARMALALLDAVSSFRIRHRPHDQLRLRIGVHTGPDCAGVVGLKMPRYCLFGDTVNTASRMESNGQALKIHVSSTTKDALDELGCFQLELRGDVEMKGKGKMRTYWLLGERKGPPGLL
B3: Trp42Arg: NPR2 protein-altering variant, expression construct transfected into HEK293 cells (protein)
chain: RNLTLAVVLPEHNLSYAWARPRVGPAVALAVEALGRALPVDLRFVSSELEGACSEYLAPLSAVDLKLYHDPDLLLGPGCVYPAASVARFASHWRLPLLTAGAVASGFSAKNDHYRTLVRTGPSAPKLGEFVVTLHGHFNWTARAALLYLDARTDDRPHYFTIEGVFEALQGSNLSVQHQVYAREPGGPEQATHFIRANGRIVYICGPLEMLHEILLQAQRENLTNGDYVFFYLDVFGESLRAGPTRATGRPWQDNRTREQAQALREAFQTVLVITYREPPNPEYQEFQNRLLIRAREDFGVELGPSLMNLIAGCFYDGILLYAEVLNETIQEGGTREDGLRIVEKMQGRRYHGVTGLVVMDKNNDRETDFVLWAMGDLDSGDFQPAAHYSGAEKQIWWTGRPIPWVKGAPPSDNPPCAFDLDDPSCDKTPLSTLAIVALGTGITFIMFGVSSFLIFRKLMLEKELASMLWRIRWEELQFGNSERYHKGAGSRLTLSLRGSSYGSLMTAHGKYQIFANTGHFKGNVVAIKHVNKKRIELTRQVLFELKHMRDVQFNHLTRFIGACIDPPNICIVTEYCPRGSLQDILENDSINLDWMFRYSLINDLVKGMAFLHNSIISSHGSLKSSNCVVDSRFVLKITDYGLASFRSTAEPDDSHALYAKKLWTAPELLSGNPLPTTGMQKADVYSFGIILQEIALRSGPFYLEGLDLSPKEIVQKVRNGQRPYFRPSIDRTQLNEELVLLMERCWAQDPAERPDFGQIKGFIRRFNKEGGTSILDNLLLRMEQYANNLEKLVEERTQAYLEEKRKAEALLYQILPHSVAEQLKRGETVQAEAFDSVTIYFSDIVGFTALSAESTPMQVVTLLNDLYTCFDAIIDNFDVYKVETIGDAYMVVSGLPGRNGQRHAPEIARMALALLDAVSSFRIRHRPHDQLRLRIGVHTGPVCAGVVGLKMPRYCLFGDTVNTASRMESNGQALKIHVSSTTKDALDELGCFQLELRGDVEMKGKGKMRTYWLLGERKGPPGLL
B4: Leu956Gln: NPR2 protein-altering variant, expression construct transfected into HEK293 cells (protein)
chain: RNLTLAVVLPEHNLSYAWAWPRVGPAVALAVEALGRALPVDLRFVSSELEGACSEYLAPLSAVDLKLYHDPDLLLGPGCVYPAASVARFASHWRLPLLTAGAVASGFSAKNDHYRTLVRTGPSAPKLGEFVVTLHGHFNWTARAALLYLDARTDDRPHYFTIEGVFEALQGSNLSVQHQVYAREPGGPEQATHFIRANGRIVYICGPLEMLHEILLQAQRENLTNGDYVFFYLDVFGESLRAGPTRATGRPWQDNRTREQAQALREAFQTVLVITYREPPNPEYQEFQNRLLIRAREDFGVELGPSLMNLIAGCFYDGILLYAEVLNETIQEGGTREDGLRIVEKMQGRRYHGVTGLVVMDKNNDRETDFVLWAMGDLDSGDFQPAAHYSGAEKQIWWTGRPIPWVKGAPPSDNPPCAFDLDDPSCDKTPLSTLAIVALGTGITFIMFGVSSFLIFRKLMLEKELASMLWRIRWEELQFGNSERYHKGAGSRLTLSLRGSSYGSLMTAHGKYQIFANTGHFKGNVVAIKHVNKKRIELTRQVLFELKHMRDVQFNHLTRFIGACIDPPNICIVTEYCPRGSLQDILENDSINLDWMFRYSLINDLVKGMAFLHNSIISSHGSLKSSNCVVDSRFVLKITDYGLASFRSTAEPDDSHALYAKKLWTAPELLSGNPLPTTGMQKADVYSFGIILQEIALRSGPFYLEGLDLSPKEIVQKVRNGQRPYFRPSIDRTQLNEELVLLMERCWAQDPAERPDFGQIKGFIRRFNKEGGTSILDNLLLRMEQYANNLEKLVEERTQAYLEEKRKAEALLYQILPHSVAEQLKRGETVQAEAFDSVTIYFSDIVGFTALSAESTPMQVVTLLNDLYTCFDAIIDNFDVYKVETIGDAYMVVSGLPGRNGQRHAPEIARMALALLDAVSSFRIRHRPHDQLRQRIGVHTGPVCAGVVGLKMPRYCLFGDTVNTASRMESNGQALKIHVSSTTKDALDELGCFQLELRGDVEMKGKGKMRTYWLLGERKGPPGLL
B5: Gly917Arg: NPR2 protein-altering variant, expression construct transfected into HEK293 cells (protein)
chain: RNLTLAVVLPEHNLSYAWAWPRVGPAVALAVEALGRALPVDLRFVSSELEGACSEYLAPLSAVDLKLYHDPDLLLGPGCVYPAASVARFASHWRLPLLTAGAVASGFSAKNDHYRTLVRTGPSAPKLGEFVVTLHGHFNWTARAALLYLDARTDDRPHYFTIEGVFEALQGSNLSVQHQVYAREPGGPEQATHFIRANGRIVYICGPLEMLHEILLQAQRENLTNGDYVFFYLDVFGESLRAGPTRATGRPWQDNRTREQAQALREAFQTVLVITYREPPNPEYQEFQNRLLIRAREDFGVELGPSLMNLIAGCFYDGILLYAEVLNETIQEGGTREDGLRIVEKMQGRRYHGVTGLVVMDKNNDRETDFVLWAMGDLDSGDFQPAAHYSGAEKQIWWTGRPIPWVKGAPPSDNPPCAFDLDDPSCDKTPLSTLAIVALGTGITFIMFGVSSFLIFRKLMLEKELASMLWRIRWEELQFGNSERYHKGAGSRLTLSLRGSSYGSLMTAHGKYQIFANTGHFKGNVVAIKHVNKKRIELTRQVLFELKHMRDVQFNHLTRFIGACIDPPNICIVTEYCPRGSLQDILENDSINLDWMFRYSLINDLVKGMAFLHNSIISSHGSLKSSNCVVDSRFVLKITDYGLASFRSTAEPDDSHALYAKKLWTAPELLSGNPLPTTGMQKADVYSFGIILQEIALRSGPFYLEGLDLSPKEIVQKVRNGQRPYFRPSIDRTQLNEELVLLMERCWAQDPAERPDFGQIKGFIRRFNKEGGTSILDNLLLRMEQYANNLEKLVEERTQAYLEEKRKAEALLYQILPHSVAEQLKRGETVQAEAFDSVTIYFSDIVGFTALSAESTPMQVVTLLNDLYTCFDAIIDNFDVYKVETIGDAYMVVSRLPGRNGQRHAPEIARMALALLDAVSSFRIRHRPHDQLRLRIGVHTGPVCAGVVGLKMPRYCLFGDTVNTASRMESNGQALKIHVSSTTKDALDELGCFQLELRGDVEMKGKGKMRTYWLLGERKGPPGLL

Tested on: NPR2
Test: cGMP catchpoint assay of NPR2 variants in transfected HEK293 cells treated with 20 nM CNP
Format: cell-based
Design: key to Lable: loss-of-function (LoF); Gain-of-function (GoF)
Conditions: for average phenotype: cGMP normalized to RedLuciferase and to WT = 1, HEK293, 20 nM CNP, 0.4 nM IBMX, at least 3 repeat experiments with 4 replicates each; for Lable: high-confidence variant class
Procedure: Described herein is an in-vitro assay (cGMP) to assess the activities of >260 NPR2 variants. NPR2 protein-altering variants have been identified in the UK Biobank study and described in Estrada et al. (Nat Commun. 2021 12 (1): 2224). NPR2-expression constructs were transfected into HEK293 cells and 3 days later cells were treated with […] IBMX and 20 nM CNP in serum-free DMEM prior to measuring cGMP levels. The cGMP catchpoint ELISA competition assay (Molecular Devices) was used to measure cGMP according to manufacturer recommendations. RedLuc was used as a transfection control (FIG. 8A).
The NPR2 alpha-fold structure was obtained from a recent alpha-fold publication (Jumper et al., Nature 596:583-589 (2021)). A list of phenotypically characterized “high-confidence” variants was generated (Table 4). Phenotype is calculated by determining levels of cGMP using a standard curve. This value to normalized to RedLuciferase (transfection control). This value is further normalized by setting WT to 1. Average value is calculated from at least 3 repeat experiments with 4 replicates each.

Row | Molecule | average phenotype | Lable
1 | B1 | 0.01553 and 0.02954 | LoF
2 | B2 | 0.0158 | LoF
3 | B3 | 0.0288 | LoF
4 | B4 | 0.02434 | LoF
5 | B5 | 0.01708 | LoF
